Earlier results in paper PMC12759081.

Target: PDS5B (Homo sapiens) (UniProt Q9NTI5)
Experiment: ITC

Chain of PDS5B (Homo sapiens) (Q9NTI5 whole entry): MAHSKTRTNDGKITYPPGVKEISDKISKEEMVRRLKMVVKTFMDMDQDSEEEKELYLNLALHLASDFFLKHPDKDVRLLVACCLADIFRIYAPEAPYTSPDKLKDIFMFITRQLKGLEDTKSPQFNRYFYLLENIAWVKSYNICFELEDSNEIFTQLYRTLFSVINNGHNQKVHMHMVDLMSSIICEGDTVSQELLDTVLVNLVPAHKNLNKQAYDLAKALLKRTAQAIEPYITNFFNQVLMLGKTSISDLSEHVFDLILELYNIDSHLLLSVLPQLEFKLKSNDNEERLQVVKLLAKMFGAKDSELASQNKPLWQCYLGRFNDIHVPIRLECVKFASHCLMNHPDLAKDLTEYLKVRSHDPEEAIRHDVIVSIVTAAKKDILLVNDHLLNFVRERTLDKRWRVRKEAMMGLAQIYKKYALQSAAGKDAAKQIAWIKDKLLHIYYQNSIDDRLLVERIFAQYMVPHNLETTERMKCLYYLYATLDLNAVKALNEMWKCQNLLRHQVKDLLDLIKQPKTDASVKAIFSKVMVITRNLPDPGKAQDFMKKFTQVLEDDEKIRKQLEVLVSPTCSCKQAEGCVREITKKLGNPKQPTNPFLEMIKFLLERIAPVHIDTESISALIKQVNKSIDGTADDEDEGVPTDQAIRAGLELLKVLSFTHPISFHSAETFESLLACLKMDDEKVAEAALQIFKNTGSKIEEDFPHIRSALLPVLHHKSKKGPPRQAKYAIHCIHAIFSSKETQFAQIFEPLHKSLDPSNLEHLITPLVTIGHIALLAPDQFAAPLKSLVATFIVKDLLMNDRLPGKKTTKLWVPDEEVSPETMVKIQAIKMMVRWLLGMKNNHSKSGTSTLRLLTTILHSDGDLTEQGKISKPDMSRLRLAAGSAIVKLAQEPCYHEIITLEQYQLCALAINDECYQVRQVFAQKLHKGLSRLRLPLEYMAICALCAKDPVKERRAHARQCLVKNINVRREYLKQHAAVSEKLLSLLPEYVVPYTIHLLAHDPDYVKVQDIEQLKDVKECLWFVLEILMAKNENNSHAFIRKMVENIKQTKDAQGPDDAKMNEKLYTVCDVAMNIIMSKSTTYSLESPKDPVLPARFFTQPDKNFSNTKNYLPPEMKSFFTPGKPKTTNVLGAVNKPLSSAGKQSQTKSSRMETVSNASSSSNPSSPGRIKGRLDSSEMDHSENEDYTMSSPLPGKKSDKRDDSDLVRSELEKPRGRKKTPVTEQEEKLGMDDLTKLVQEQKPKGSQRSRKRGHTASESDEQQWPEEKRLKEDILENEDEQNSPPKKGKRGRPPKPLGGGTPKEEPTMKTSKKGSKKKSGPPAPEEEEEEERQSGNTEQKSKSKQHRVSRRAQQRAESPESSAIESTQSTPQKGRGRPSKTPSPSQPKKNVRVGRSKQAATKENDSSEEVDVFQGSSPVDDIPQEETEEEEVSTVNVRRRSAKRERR
Chain of Wapl (Q7Z5K2 whole entry): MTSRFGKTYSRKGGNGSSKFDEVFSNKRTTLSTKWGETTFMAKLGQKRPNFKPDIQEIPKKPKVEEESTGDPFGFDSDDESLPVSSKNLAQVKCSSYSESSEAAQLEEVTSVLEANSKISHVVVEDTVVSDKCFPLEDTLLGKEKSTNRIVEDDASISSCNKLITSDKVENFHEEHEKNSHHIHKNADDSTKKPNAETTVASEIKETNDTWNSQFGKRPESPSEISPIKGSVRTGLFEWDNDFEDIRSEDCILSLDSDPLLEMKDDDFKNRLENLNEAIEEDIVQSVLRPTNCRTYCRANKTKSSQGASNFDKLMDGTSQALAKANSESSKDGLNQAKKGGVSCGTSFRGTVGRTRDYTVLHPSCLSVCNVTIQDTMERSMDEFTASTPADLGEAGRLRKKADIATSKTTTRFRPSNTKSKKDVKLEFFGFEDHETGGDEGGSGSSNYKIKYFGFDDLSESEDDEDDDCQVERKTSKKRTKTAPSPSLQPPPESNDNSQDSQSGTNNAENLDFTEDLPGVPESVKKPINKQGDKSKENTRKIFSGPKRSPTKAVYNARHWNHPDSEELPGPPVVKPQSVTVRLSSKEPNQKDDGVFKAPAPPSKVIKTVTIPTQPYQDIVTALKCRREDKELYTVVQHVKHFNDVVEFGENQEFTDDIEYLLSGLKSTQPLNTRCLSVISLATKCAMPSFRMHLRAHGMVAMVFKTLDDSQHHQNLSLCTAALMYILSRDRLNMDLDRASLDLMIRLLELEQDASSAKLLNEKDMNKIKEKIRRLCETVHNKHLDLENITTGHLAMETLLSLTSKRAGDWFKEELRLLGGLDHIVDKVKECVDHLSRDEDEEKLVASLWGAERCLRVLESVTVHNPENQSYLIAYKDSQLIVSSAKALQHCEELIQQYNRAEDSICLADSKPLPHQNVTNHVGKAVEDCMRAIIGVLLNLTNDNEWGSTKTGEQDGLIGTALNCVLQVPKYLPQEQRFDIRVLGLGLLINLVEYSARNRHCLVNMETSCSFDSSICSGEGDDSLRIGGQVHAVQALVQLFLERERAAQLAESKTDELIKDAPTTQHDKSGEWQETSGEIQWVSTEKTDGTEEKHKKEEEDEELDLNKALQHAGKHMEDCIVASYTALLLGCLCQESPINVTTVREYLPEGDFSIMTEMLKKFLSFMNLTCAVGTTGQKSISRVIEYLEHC

Question: For Wapl (from UniProt Q7Z5K2), which Kd is on record?
Answer: 6 µM
